This data set deals with the molecule itself. Nature of the data set: NMR solution structure; 0.6 mM in 5 mM Tris-Cl pH 7.6, 50 mM NaCl, 0.05% NaN3, 308 K; intermolecular distance restraints from a 3D 13C-filtered/13C-separated NOESY on a mixed 12C/13C sample.

B1: carboxy-terminal domain (CTD) fragment of λ Ea22 (102–182) (domain or fragment, bacteriophage λ)
chain: SNEVREDGNQFLVVRHPGKTPVIKHCTGDLEEFLRQLIEQDPLVTIDIITHRYYGVGGQWVQDAGEYLHMMSDAGIRIKGEIETAV
notes: Ea22 of bacteriophage lambda, carboxy-terminal domain, residues 102-182 of the 182-residue protein; gene synthesized by ATUM, in plasmid pD441NH; Uniformly 13C,15N (or 15N) labelled for NMR; a mixed 12C/13C dimer was made by mixing 12C/14N and 13C/15N proteins 1:1 in 6 M urea and diluting rapidly; Dimer printed as 21.4 kDa; also called λ Ea22 CTD; Ea22 CTD; not shown: 6xHis, N-terminal, kept
As for B1, the “stoichiometry N” value was found to be 2.

One may read the stoichiometry N as the number of molecules, sites or subunits per partner or assembly.
